# Measured values published in PMC6475665, “Alone at last! – Heterologous expression of a single gene is sufficient for establishing the five-step Weimberg pathway in Corynebacterium glutamicum” (Metabolic Engineering Communications, 2019).
# B1: KsaD (Cg0535) (Corynebacterium glutamicum ATCC 13032) (protein)
# chain: MITATALHGCSLIDGEWVAGKNGEITGFDPRTNASLNPSYSLANSAQLRAATTSAKRAFESYRLTTPEVRADFLDSIADNIDALSGEIVQRASLETGLGTTRLTGEVARTSNQLRLFAETVRSGQFHRVRIERGPRIDLRQRQVPLGPVAVFGASNFPVAFSTAGGDTASALAAGCPVVFKAHNAHPGTAELVGQAVRGAVEKHEFDAGVFNLVYGRGVEIGQELAADPNITAIGFTGSRQGGLALSQTAFSRPVPVPVFAEMSATNPVFVFPGALADLDASSSLAEAFTASVTGSSGQLCTKPGLVFIPRGVVGDAFVALVAAKFKETTGQTMLTQGIAQAWQRGVDNLAAQPSVKILAQGTPGDGENAPGPVVFESDVQALLNNVVLQEEIFGAASLVVRYDSPDQLHQVANSLEGQLTATIHASQDDFQEVSKLIPLLEDLAGRVLYGGWPTGVEVGHTVIHGGPYPATSNAQSTSVGTLAIERFMRPVSYQTFPAELLPDPVSEANKWAVPREIDR
# notes: N-terminus MITATA after tag (from primer)
# Substrate: O=CCCC(=O)C(=O)O
# Assay: purified protein
# Format: biochemical, Corynebacterium glutamicum
# Details: 5 mM NAD+, 100 mM potassium phosphate, pH 7.5, 30 °C
protein,measurement,value
B1,Km,870 µM
